Assay results published in patent US8709741B2, “Methods of diagnosing a plasmodium infection” (priority 2009, dated 2014).
Where two headings read alike, the source gives them in different places.

How the values were obtained:
P. falciparum = experiment: Anti-Plasmodium activity assay in Albumax II (serum substitute); format: cell-based; conditions: Albumax II
Method: The chloroquine-resistant P. falciparum FcB1/Colombian strain was used. Under the following culture conditions, the in vitro life cycle of the FcB1 strain was 48 hours. Cultures were grown in complete medium consisting of RPMI 1640 (Life Technologies, Inc.) supplemented with 11 mM glucose, 27.5 mM NaHCO3, 100 UI/mL penicillin, 100 μg/mL streptomycin, adjusted to pH 7.4 before addition of heat-inactivated human serum (A+ blood group, 8% final) or Albumax II® (0.5% final), according to the procedure of Trager and Jensen (1976). Parasites were routinely grown at 37° C. in human A+ RBCs (Red blood cells) at a 2% haematocrit and 2-6% parasitemia, in a 3% CO2, 6% O2 and 91% N2 atmosphere. Semi-synchronized cultures were established by Sorbitol (Lambros) treatment. […] Parasitaemia and stage distribution were determined by optical examination of Diff-Quick stained culture smears. […]
Dried preparations of the purified recombinant human sPLA2s were re-suspended at high concentration (usually 50 μM) in RPMI 0.05% BSA, and then tested individually for their capacity to inhibit the in vitro intra-erythrocytic development of P. falciparum. […] Radioactivity was measured with a 1450 Microbeta counter (Wallac, Perkin Elmer). Percentage of growth inhibition was calculated from the parasite-associated radioactivity compared with control without sPLA2. Values for the IC50 were determined from dose-response curves. […]

[1] = tested on: P. falciparum FcB1/Colombian strain; experiment: Anti-Plasmodium activity assay (dose-response, 3H-hypoxanthine incorporation), culture with human serum; format: cell-based
Method: The chloroquine-resistant P. falciparum FcB1/Colombian strain was used. Under the following culture conditions, the in vitro life cycle of the FcB1 strain was 48 hours. Cultures were grown in complete medium consisting of RPMI 1640 (Life Technologies, Inc.) supplemented with 11 mM glucose, 27.5 mM NaHCO3, 100 UI/mL penicillin, 100 μg/mL streptomycin, adjusted to pH 7.4 before addition of heat-inactivated human serum (A+ blood group, 8% final) or Albumax II® (0.5% final), according to the procedure of Trager and Jensen (1976). Parasites were routinely grown at 37° C. in human A+ RBCs (Red blood cells) at a 2% haematocrit and 2-6% parasitemia, in a 3% CO2, 6% O2 and 91% N2 atmosphere. Semi-synchronized cultures were established by Sorbitol (Lambros) treatment. Highly synchronized cultures (4 hour-window synchronization) were obtained by successive Plamion (Pasvol) and Sorbitol treatments. Parasitaemia and stage distribution were determined by optical examination of Diff-Quick stained culture smears. Parasitaemia (expressed in percent) is hundred times the number of parasitized erythrocytes divided by the total number of erythrocytes.
Dried preparations of the purified recombinant human sPLA2s were re-suspended at high concentration (usually 50 μM) in RPMI 0.05% BSA, and then tested individually for their capacity to inhibit the in vitro intra-erythrocytic development of P. falciparum. Dose-response assays based on ^3H-hypoxanthine incorporation by growing parasites were performed as in Guillaume et al. (2004). Radioactivity was measured with a 1450 Microbeta counter (Wallac, Perkin Elmer). Percentage of growth inhibition was calculated from the parasite-associated radioactivity compared with control without sPLA2. Values for the IC50 were determined from dose-response curves.

B1: X: recombinant human group X secreted phospholipase A2 (protein, UniProt O15496 43-165, looked up)
Group 10 secretory …: GILELAGTVGCVGPRTPIAYMKYGCFCGLGGHGQPRDAIDWCCHGHDCCYTRAEEAGCSPKTERYSWQCVNQSVLCGPAENKCQELLCKCDQEIANCLAQTEYNLKYLFYPQFLCEPDSPKCD
**Q.** How did the “inhibition of Plasmodium growth in Albumax II” value (P. falciparum) turn out when B1 was run?
**A.** Its value is “does not efficiently inhibit Plasmodium growth”.

**Q.** And the IC50 ([1]; Table II, read-out: IC50 (nM), anti-P. falciparum activity given for comparison)?
**A.** The IC50 was 2.9 ± 2.4 nM.

**Q.** What about the IC50 ([1]; culture in human red blood cells and serum, mean of independent dose-response assays, read-out: IC50 ± SD (anti-P. falciparum activity)) of the same molecule?
**A.** The IC50 was 2.9 ± 2.4 nM.

**Q.** And the “inhibition of P. falciparum development in vitro” value ([1]; standard P. falciparum cultures with serum)?
**A.** Its value is “active against P. falciparum”.
